Data on 2 molecules can be found in patent US9663815B2, “Cytosolically-active peroxidases as reporters for microscopy” (Massachusetts Institute of Technology, priority 2011, dated 2017).

For one series, the system named is HEK293T cells. Briefly: Amplex UltraRed labeling (resorufin fluorescence) of cells expressing peroxidase. It counts as cell-based. On the procedure: The expression and activity of wild-type (wt) APX was tested using immunostaining and Amplex UltraRed, a fluorogenic peroxidase substrate, in three cellular compartments: cytosol, mitochondrial matrix, and endoplasmic reticulum (ER). APX was differentially expressed in each compartment using at least the constructs described in Table 3. For comparison, HRP was tested in the same locations. Activity was monitored through visualization of resorufin, the fluorescent product of Amplex UltraRed oxidation by HRP or APX (scheme in FIG. 7). […] When live cells were imaged immediately after Amplex UltraRed labeling, resorufin fluorescence was seen throughout the entire cell. After fixation, however, the majority of the resorufin diffused out of the cells, and resorufin fluorescence remained only in the compartment in which APX was expressed. (Note that Amplex UltraRed, a proprietary derivative of Amplex Red, was used rather than Amplex Red in this example).
Further, Amplex UltraRed labeling and immunostaining of wtAPX, APX^W41F, mAPX, and APEX was performed on transfected HEK293T cells. Amplex UltraRed labeling was performed for 6 minutes. All APX variants were expressed with a C-terminal nuclear export signal (NES, see Table 3). […]

The test system of the next series is connexin43 (Cx43). Description: Connexin43 fusion localization to gap junctions. It counts as cell-based, rat. The conditions noted are these: fused to connexin43. The procedure: Both mAPX and wt APX were fused to connexin43 (Cx43), a protein that is sensitive to oligomeric tags (FIG. 4d) (McKinney, et. al., Nat Meth 6, 131-133 (2009); Lauf, et. al., FEBS letters 498, 11-15 (2001)).
To generate a monomeric APX with improved activity, the two mAPX mutations (K14D/E112K) were added to each of the activity-enhanced mutants. […] The sextuple mutant (K14D, E112K, W41F, D133A, T135F, K136F=mAPX−FFAF), was compared to mAPX+W41F within cells. HEK cells were transfected with constructs targeted to the mitochondrial matrix (Table 3), while COS-7 cells were transfected with constructs fused to the C-terminus of connexin 43 (Table 3). After fixation, the cells were treated with DAB and H2O2 to generate DAB polymer. […] After fixation, cells were stained with anti-Flag (for matrix) or anti-myc (for connexin) antibody to visualize peroxidase expression levels. […] Therefore mAPX+W41F (K14D/E112K/W41F) was selected, denoted as “APEX” (for Enhanced APX), as the optimized reporter for subsequent experiments.
Any cell displaying detectable GFP fluorescence was considered transfected. Contact sites between neighboring transfected cells were identified using DIC imaging. Gap junctions were identified as lines of GFP fluorescence unambiguously overlaying with the plasma membrane of two transfected cells based on DIC. DAB stain intensity for APX-NES variants was analyzed using SlideBook. Transfected cells were identified by nuclear YFP fluorescence. In each transfected cell, a representative DAB-stained region was encircled, and its average brightfield intensity was calculated. Background intensity, determined for each field of view by encircling a representative region in the cytosol of an untransfected cell, was subtracted out. The bar graph in FIG. 2c represents mean data from >60 transfected cells.

B1: wt APX: pea cytosolic ascorbate peroxidase (Pisum sativum), wild type, about 28 kD, dimeric (protein, listed as Pisum sativum)
chain: MGKSYPTVSPDYQKAIEKAKRKLRGFIAEKKCAPLILRLAWHSAGTFDSKTKTGGPFGTIKHQAELAHGANNGLDIAVRLLEPIKEQFPIVSYADFYQLAGVVAVEITGGPEVPFHPGREDKPEPPPEGRLPDATKGSDHLRDVFGKAMGLSDQDIVALSGGHTIGAAHKERSGFEGPWTSNPLIFDNSYFTELLTGEKDGLLQLPSDKALLTDSVFRPLVEKYAADEDVFFADYAEAHLKLSELGFAEA
Consider B1, for which, in the series on HEK293T cells (expressed in cytosol, mitochondrial matrix and endoplasmic reticulum (ER)), the “peroxidase activity toward Amplex UltraRed (resorufin)” value is “active in all contexts”. Further, in the series with connexin43 (Cx43), the “localization of connexin43 fusion / gap junction formation” value is “abnormal retention inside cells”.

B2: mAPX: double mutant K14D/E112K of pea APX (SEQ ID NO:1), monomeric (protein, listed as Pisum sativum)
chain: MGKSYPTVSPDYQDAIEKAKRKLRGFIAEKKCAPLILRLAWHSAGTFDSKTKTGGPFGTIKHQAELAHGANNGLDIAVRLLEPIKEQFPIVSYADFYQLAGVVAVEITGGPKVPFHPGREDKPEPPPEGRLPDATKGSDHLRDVFGKAMGLSDQDIVALSGGHTIGAAHKERSGFEGPWTSNPLIFDNSYFTELLTGEKDGLLQLPSDKALLTDSVFRPLVEKYAADEDVFFADYAEAHLKLSELGFAEA
As for B2, in the series with HEK293T cells (cytosol (NES), HEK293T, labeling 6 minutes), the “activity toward Amplex UltraRed” value was “less active than wt APX”.
